Measurements reported in patent US20250049939A1 (TUBULIS, published 2025).
Positions count from the first letter of the chain named. One block for each binder: values may come before it.

Key:
[1] = target: T1, CSF1R on Ba/F3 cells (UniProt P07333 20-972, limits assumed); assay: flow cytometry, cell surface binding to Ba/F3 pMIY cells expressing CSF-1R, MFI ratio normalized to IgG1, mean ± s.d. of n=3
T1 construct: whole, on cells

[2] = target: T2, human CD64 (high affinity Fc receptor, FCGR1) on cells (human, UniProt P12314 16-374); assay: flow cytometry, cell surface binding to Ba/F3-pMIY cells expressing CD64, specific MFI, mean ± s.d. of n=3
T2 construct: whole, on cells; also called hCD64; human FCGR1

[3] = target: T3, PDGFRα on Ba/F3 cells (UniProt P16234 24-1089, limits assumed); assay: flow cytometry, cell surface binding to Ba/F3 pMIY cells expressing PDGFRα, MFI ratio normalized to IgG1, mean ± s.d. of n=3
T3 construct: whole, on cells

[4] = target: T4, VEGFR-2 on Ba/F3 cells (UniProt P35968 20-1356, limits assumed); assay: flow cytometry, cell surface binding to Ba/F3 pMIY cells expressing VEGFR, MFI ratio normalized to IgG1, mean ± s.d. of n=3
T4 construct: whole, on cells

[5] = target: CD16 (Fc gamma receptor) on Ba/F3 cells (human, UniProt P08637 17-254); assay: flow cytometry, cell surface binding to Ba/F3-pMIY cells expressing CD16, specific MFI, mean ± s.d. of n=3
[6] = target: T5, c-KIT on Ba/F3 cells (UniProt P10721 26-976, limits assumed); assay: flow cytometry, cell surface binding to Ba/F3 pMIY cells expressing c-KIT, MFI ratio normalized to IgG1, mean ± s.d. of n=3
T5 construct: whole, on cells

[7] = target: T6, recombinant human FLT3 protein (human, UniProt P36888 27-541); assay: ELISA on recombinant human FLT3, normalized to BSA control
T6 construct: also called recombinant FLT3 protein; human recombinant FLT3 protein (10445-H08H, Sino Biological)
T6 sequence: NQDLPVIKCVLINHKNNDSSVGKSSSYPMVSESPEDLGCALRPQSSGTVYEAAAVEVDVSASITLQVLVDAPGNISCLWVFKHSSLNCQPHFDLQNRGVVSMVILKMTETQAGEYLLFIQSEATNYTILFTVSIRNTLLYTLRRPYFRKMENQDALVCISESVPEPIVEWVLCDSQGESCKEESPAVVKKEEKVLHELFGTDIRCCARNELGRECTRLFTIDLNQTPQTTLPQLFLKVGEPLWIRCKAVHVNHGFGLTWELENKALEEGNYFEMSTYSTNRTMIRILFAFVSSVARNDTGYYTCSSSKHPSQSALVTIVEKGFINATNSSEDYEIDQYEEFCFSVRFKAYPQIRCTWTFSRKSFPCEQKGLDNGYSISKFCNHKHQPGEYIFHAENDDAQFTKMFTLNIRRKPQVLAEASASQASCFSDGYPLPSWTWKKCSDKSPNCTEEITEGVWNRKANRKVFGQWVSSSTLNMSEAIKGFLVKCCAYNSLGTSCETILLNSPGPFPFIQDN
Procedure: (§1) Maxisorp plates were coated with human recombinant FLT3 protein (10445-H08H, Sino Biological). […] For detection, Attophos Fluorescent Substrate System (S1000, Promega) was applied. The fluorescence was read with excitation of 405 nm and emission at 500-550 nm. The calculation of the dissociation constant KD was performed using GraphPad Prism version 9.4.0.

[8] = target: T7, human wildtype FLT3 expressed on Ba/F3 cells (human, UniProt P36888 27-993); assay: flow cytometry, cell surface binding to Ba/F3 cells expressing human FLT3 (results of FIG. 14 summarized)
T7 construct: also called hFLT3 wt; Ba/F3-FLT3
T7 sequence: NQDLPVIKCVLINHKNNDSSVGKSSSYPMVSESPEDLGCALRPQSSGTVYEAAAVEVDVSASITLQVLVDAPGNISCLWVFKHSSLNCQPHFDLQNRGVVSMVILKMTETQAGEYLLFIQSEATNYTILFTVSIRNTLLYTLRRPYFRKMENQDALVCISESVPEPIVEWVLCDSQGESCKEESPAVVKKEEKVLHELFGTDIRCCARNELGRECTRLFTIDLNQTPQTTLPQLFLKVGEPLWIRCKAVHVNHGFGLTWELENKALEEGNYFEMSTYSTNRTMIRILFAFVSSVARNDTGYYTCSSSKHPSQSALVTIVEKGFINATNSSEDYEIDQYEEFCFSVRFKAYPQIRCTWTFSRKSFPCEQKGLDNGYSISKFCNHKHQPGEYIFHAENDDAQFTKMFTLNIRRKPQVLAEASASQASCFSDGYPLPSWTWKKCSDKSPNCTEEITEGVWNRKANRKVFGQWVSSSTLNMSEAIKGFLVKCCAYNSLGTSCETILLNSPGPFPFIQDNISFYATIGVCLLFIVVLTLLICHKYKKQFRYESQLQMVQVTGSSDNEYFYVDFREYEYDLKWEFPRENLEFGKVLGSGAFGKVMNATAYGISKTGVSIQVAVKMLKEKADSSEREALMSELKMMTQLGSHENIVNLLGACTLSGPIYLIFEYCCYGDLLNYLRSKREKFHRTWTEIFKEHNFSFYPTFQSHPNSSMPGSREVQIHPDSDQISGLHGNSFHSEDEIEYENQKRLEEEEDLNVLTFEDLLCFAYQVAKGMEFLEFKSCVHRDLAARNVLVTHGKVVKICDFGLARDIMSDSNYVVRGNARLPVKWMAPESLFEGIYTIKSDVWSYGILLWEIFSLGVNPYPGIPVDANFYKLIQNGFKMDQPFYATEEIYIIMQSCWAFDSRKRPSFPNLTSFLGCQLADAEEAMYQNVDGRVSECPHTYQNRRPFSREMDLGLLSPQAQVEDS

[9] = target: T6, recombinant human FLT3 protein; assay: ELISA with recombinant human FLT3 coated to the plate (results of FIG. 13 summarized)
Procedure: as §1
The 12 clones were subsequently analysed in ELISA assays (FIG. 13). Therefore, recombinant human FLT3 was coated on plates and incubated with the antibody candidates. […] Mean±s.d. of n=3 biological replicates.

T4 sequence (P35968 20-1356 limits assumed): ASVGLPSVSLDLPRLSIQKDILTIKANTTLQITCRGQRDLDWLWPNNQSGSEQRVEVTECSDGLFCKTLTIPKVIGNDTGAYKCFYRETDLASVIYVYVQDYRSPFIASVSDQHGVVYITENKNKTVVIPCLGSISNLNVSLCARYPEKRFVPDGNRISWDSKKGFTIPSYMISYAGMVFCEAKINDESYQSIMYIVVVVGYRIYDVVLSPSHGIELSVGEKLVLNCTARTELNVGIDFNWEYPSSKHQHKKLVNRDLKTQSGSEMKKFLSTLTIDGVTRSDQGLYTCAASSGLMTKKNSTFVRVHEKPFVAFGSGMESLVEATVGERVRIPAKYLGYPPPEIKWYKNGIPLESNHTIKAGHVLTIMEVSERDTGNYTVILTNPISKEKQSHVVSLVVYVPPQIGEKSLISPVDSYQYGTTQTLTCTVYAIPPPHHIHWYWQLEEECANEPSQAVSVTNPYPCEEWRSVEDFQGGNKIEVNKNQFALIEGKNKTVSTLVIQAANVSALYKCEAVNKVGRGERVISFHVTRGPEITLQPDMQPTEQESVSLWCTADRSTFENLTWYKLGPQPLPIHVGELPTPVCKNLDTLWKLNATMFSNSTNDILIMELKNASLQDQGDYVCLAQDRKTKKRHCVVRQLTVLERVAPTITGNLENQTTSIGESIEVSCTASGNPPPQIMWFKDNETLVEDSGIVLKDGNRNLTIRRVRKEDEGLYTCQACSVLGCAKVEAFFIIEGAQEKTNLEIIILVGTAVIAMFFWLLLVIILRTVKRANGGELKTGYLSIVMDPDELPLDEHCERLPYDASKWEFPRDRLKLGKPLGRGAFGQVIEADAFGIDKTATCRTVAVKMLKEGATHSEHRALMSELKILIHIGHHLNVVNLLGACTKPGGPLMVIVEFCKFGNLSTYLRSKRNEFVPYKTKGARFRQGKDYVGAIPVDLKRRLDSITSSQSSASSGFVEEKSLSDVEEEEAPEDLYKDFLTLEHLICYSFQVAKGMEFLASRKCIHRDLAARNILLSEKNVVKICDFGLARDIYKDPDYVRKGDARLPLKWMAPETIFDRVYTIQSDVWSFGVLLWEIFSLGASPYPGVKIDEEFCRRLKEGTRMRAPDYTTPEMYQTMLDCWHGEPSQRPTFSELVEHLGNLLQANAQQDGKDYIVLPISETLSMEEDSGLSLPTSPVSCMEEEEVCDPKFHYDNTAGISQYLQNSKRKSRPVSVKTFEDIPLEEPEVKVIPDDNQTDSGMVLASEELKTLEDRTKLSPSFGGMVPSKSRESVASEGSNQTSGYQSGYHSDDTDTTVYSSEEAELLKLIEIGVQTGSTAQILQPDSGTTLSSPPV
T5 sequence (P10721 26-976 limits assumed): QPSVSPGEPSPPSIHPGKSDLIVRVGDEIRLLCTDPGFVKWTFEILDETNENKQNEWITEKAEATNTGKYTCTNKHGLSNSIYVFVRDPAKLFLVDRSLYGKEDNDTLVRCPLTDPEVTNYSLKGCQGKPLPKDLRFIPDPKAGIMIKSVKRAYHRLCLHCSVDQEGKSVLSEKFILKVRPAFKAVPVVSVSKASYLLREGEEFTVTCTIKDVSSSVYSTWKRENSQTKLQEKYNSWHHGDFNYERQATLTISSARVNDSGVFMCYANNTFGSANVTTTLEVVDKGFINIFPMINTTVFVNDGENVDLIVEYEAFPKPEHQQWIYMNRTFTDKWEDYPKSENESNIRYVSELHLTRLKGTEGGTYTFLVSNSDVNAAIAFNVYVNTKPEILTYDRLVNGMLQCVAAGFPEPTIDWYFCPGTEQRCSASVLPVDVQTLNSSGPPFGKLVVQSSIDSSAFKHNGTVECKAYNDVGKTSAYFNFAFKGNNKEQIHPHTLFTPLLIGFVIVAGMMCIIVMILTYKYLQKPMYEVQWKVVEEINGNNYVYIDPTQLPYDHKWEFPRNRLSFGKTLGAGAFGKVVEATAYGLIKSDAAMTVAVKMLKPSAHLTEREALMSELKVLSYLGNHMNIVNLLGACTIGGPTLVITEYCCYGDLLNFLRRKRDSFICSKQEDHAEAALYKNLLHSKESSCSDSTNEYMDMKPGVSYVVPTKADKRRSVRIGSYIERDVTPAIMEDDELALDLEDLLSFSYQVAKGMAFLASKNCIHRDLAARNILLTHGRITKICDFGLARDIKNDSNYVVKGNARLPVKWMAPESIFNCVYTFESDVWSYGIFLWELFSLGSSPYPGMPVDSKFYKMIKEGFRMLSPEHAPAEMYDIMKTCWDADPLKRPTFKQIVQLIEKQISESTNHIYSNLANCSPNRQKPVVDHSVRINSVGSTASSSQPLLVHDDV
T1 sequence (P07333 20-972 limits assumed): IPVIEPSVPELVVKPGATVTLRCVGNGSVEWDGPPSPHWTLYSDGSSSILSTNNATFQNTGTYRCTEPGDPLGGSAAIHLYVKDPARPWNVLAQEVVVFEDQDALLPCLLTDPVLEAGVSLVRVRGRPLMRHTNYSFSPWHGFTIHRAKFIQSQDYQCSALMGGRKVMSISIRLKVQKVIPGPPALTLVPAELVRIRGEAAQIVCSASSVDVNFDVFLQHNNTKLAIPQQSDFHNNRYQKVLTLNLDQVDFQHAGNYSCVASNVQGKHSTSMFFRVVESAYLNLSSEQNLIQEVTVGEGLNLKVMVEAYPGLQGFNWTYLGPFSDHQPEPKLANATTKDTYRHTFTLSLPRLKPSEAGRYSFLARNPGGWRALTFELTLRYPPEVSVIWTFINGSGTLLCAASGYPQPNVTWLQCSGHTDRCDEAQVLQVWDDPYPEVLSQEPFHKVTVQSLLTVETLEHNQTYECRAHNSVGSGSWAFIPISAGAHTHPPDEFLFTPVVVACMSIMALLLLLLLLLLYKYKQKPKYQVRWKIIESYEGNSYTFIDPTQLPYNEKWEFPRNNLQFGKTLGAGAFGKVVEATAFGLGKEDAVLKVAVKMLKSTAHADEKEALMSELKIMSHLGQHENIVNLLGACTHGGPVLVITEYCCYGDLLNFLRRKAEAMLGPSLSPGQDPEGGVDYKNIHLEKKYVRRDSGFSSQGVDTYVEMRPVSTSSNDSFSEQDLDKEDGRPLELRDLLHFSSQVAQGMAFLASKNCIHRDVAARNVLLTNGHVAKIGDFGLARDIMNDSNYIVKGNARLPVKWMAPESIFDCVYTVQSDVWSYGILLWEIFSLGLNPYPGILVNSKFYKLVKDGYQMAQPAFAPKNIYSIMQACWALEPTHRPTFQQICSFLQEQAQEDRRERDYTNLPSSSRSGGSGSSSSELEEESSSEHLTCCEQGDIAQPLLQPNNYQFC
CD16 (Fc gamma receptor) on Ba/F3 cells, sequence (P08637 17-254 limits assumed): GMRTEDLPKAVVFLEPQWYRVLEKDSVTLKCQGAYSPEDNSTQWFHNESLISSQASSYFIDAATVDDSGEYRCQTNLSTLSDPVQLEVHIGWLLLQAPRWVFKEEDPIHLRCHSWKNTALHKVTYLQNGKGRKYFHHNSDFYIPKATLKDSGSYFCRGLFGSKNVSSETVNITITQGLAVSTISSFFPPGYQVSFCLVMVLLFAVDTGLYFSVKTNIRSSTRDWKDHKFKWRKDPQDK
T2 sequence (P12314 16-374): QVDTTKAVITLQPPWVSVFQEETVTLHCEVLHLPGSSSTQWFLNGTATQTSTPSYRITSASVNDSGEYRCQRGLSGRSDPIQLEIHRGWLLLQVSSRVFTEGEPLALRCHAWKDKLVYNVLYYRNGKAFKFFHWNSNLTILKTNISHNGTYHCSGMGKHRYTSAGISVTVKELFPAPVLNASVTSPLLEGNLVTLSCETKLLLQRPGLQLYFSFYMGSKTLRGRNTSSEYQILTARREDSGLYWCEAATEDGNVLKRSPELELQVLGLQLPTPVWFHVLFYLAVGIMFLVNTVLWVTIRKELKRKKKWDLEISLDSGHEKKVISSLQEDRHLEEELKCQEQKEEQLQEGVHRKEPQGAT

binding result [1]: no binding
binding result [2]: binds
binding result [3]: no binding
binding result [4]: no binding
binding result [5]: no binding
binding result [6]: no binding
B1: Humanized clone 13 of 20D9 (VH3 + VK1; HC-LALA, same as Clone #3 but with LALA mutation in HC constant region) (antibody, human IgG1, kappa, L234A L235A)
heavy: not shown
light: DIQMTQSPSVLSASVGDRVTINCRASQNINKELNWYQQKLGEAPKLLIYNTNNLQSGVPSRFSGSGSGTDYTLTISSLQPEDVATYFCFQHKSWPLTFGSGTKLEIKRTVAAPSVFIFPPSDEQLKSGTASVVCLLNNFYPREAKVQWKVDNALQSGNSQESVTEQDSKDSTYSLSSTLTLSKADYEKHKVYACEVTHQGLSSPVTKSFNRGEC
notes: also called #3-LALA; #3-LALA mab

Kd [7]: 0.0319 mg/L
B2: 4B12 chimeric anti-FLT3 monoclonal antibody (antibody, V domains shown)
VH: QVQLQQSGPGLVQPSQTLSLTCTVSGFSLTSYNVNWVRQPPGKGLEWIGAMWRGGGTDYNPALKSRLSISRDTSKSQVFLKMNRLQTEDTAIYFCTRGFGDYWGQGVMVTVSS
VL: DIQMTQTPLSLSVAIGQSASISCKSSQSLKYSDGKTYLNWVFQSPGQSPKRLIYQVSKLDSGVPDRFSGTGSETDFTLKISRVEAEDLGVYYCCQGSYSPSTFGAGTKLELKR
notes: also called 4B12 mab

Kd [7]: 3.31 mg/L
B3: 30B12 chimeric anti-FLT3 monoclonal antibody (antibody, V domains shown)
VH: QVQLKVSGPGLVQPSQTLSLTCAVSGFSLSNYHVSWVRQPPGKGLEWIAAISSGGSTYYNSPLKSRLSISRDTSKSQVFLKMNSLQTEDTAIYFCTGEDGYTFGNVMDAWGQGASVTVSS
VL: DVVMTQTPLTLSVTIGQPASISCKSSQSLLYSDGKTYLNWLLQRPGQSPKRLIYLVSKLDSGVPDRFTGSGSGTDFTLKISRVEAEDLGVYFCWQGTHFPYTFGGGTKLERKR

Binding to human FLT3 (MFI ratio to IgG1 control) [8]: 42.4
Kd [9]: 0.0293 mg/L
B4: #5 (antibody, human IgG1, kappa, V domains shown)
VH: QVMLVESGGGVVQPGRSLRLSCAASGFTFNNYWMTWVRQAPGKGLEWIASITKTGGGTYYPDSVKGRFTISRDNAKSTLYLQMNSLRSEDTATYYCTTLQQLGVMDAWGQGASVTVSS
VL: DIQMTQSPSVLSASVGDRVTITCRASQNINKELNWYQQKLGKAPKLLIYNTNNLQSGVPSRFSGSGSGTDFTLTISSLQPEDFATYYCFQHKSWPLTFGSGTKLEIKR
notes: also called Humanized clone 5 of 20D9 (VH1 + VK2); Clone #5

Binding to human FLT3 (MFI ratio to IgG1 control) [8]: 96
Kd [9]: 0.0114 mg/L
B5: Humanized clone 2 of 20D9 (VH2 + VK1) (antibody, human IgG1, kappa, V domains shown)
VH: B4 VH with A75S, S88A
VL: B4 VL with T22N, K42E, F71Y, F83V, Y87F

Binding to human FLT3 (MFI ratio to IgG1 control) [8]: 20.5
Kd [9]: 0.112 mg/L
B6: #11 (antibody, human IgG1, kappa, V domains shown)
VH: B4 VH with M3Q, P61A, A75S, S77N, S88A, T93V, A112T, S113L
VL: B4 VL with V10S, N28S, L40P, S100Q
notes: also called Humanized clone 11 of 20D9 (VH3 + VK3); Clone #11

Binding to human FLT3 (MFI ratio to IgG1 control) [8]: 21.3
Kd [9]: 0.0834 mg/L
B7: #9 (antibody, human IgG1, kappa, V domains shown)
VH: B4 VH
VL: B4 VL with V10S, N28S, L40P, S100Q
notes: also called Humanized clone 9 of 20D9 (VH1 + VK3); Clone #9

Binding to human FLT3 (MFI ratio to IgG1 control) [8]: 41.3
Kd [9]: 0.0335 mg/L
B8: #6 (antibody, human IgG1, kappa, V domains shown)
VH: B4 VH with A75S, S88A
VL: B4 VL
notes: also called Humanized clone 6 of 20D9 (VH2 + VK2); Clone #6

Binding to human FLT3 (MFI ratio to IgG1 control) [8]: 96
Kd [9]: 0.0114 mg/L
B9: Humanized clone 1 of 20D9 (VH1 + VK1) (antibody, human IgG1, kappa, V domains shown)
VH: B4 VH
VL: B4 VL with T22N, K42E, F71Y, F83V, Y87F

Binding to human FLT3 (MFI ratio to IgG1 control) [8]: 20.2
Kd [9]: 0.0778 mg/L
B10: #10 (antibody, human IgG1, kappa, V domains shown)
VH: B4 VH with A75S, S88A
VL: B4 VL with V10S, N28S, L40P, S100Q
notes: also called Humanized clone 10 of 20D9 (VH2 + VK3); Clone #10

Binding to human FLT3 (MFI ratio to IgG1 control) [8]: 43.7
Kd [9]: 0.0293 mg/L
B11: #8 (antibody, human IgG1, kappa, V domains shown)
VH: B4 VH with M3Q, V37I, P61A, A75S, S77N, S88A, T93V, A112T, S113L
VL: B4 VL
notes: also called Humanized clone 8 of 20D9 (VH4 + VK2); Clone #8

Binding to human FLT3 (MFI ratio to IgG1 control) [8]: 24.8
Kd [9]: 0.0553 mg/L
B12: #12 (antibody, human IgG1, kappa, V domains shown)
VH: B4 VH with M3Q, V37I, P61A, A75S, S77N, S88A, T93V, A112T, S113L
VL: B4 VL with V10S, N28S, L40P, S100Q
notes: also called Humanized clone 12 of 20D9 (VH4 + VK3); Clone #12

Binding to human FLT3 (MFI ratio to IgG1 control) [8]: 45.7
Kd [9]: 0.0371 mg/L
B13: #7 (antibody, human IgG1, kappa, V domains shown)
VH: B4 VH with M3Q, P61A, A75S, S77N, S88A, T93V, A112T, S113L
VL: B4 VL
notes: also called Humanized clone 7 of 20D9 (printed as VH3 + VK29); Clone #7

Binding to human FLT3 (MFI ratio to IgG1 control) [8]: 98.2
Kd [9]: 0.011 mg/L
B14: Humanized clone 4 of 20D9 (VH4 + VK1) (antibody, human IgG1, kappa, V domains shown)
VH: B4 VH with M3Q, V37I, P61A, A75S, S77N, S88A, T93V, A112T, S113L
VL: B4 VL with T22N, K42E, F71Y, F83V, Y87F

Kd [7]: 0.0284 mg/L
B15: 29H1 chimeric anti-FLT3 monoclonal antibody (antibody, V domains shown)
VH: EVKLEESGGGLVQPGGSMKFFCVASGFTFSNYWMNWVRQSPEKGLEWVAQIKLKSDNYATRYAESVKGRFTISRDDSKSSVNLQMNNLRAEDTGIYYCTVSLARSDYWGQGTTLTVSS
VL: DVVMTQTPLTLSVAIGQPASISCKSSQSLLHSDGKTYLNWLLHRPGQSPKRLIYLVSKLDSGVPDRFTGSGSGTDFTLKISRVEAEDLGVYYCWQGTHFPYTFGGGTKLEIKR

Kd [7]: 0.0115 mg/L
B16: 27E7 chimeric anti-FLT3 monoclonal antibody (antibody, V domains shown)
VH: B15 VH with G10D, F20L, F21S, S30R, K52R, R61H, I72M, N82Y, N87T
VL: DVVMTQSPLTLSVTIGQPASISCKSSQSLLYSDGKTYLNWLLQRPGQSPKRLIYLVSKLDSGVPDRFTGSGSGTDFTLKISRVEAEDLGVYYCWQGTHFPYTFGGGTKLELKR
